Data on 120 sequences can be found in the supplement of paper PMC10126150.

± gives the standard deviation of the averaged measurements.
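Further: ATP exposure 15 min at 22 °C before imaging.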

The data set concerns ATP. Nature of the data set: switch fluorescence ratio, 500 uM ATP over buffer (Cy3 cluster intensity, sum of 5 cycles each) (fold (ratio)); higher = stronger signal-on switching upon ATP binding; sequences stand for … in TCGTCGGCAGCGTCAGATGTGTATAAGAGACAGTTTTTTTTTTTTTTTTTTTTTTTTT…TC. The note with it: aptamer strand: ATP DNA aptamer (quencher-CACCTGGGGGAGTATTGCGGAGGAAGG + anchor), 100 nM annealed; ATP concentration: 500 uM. The gist of the method: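 For every switch-domain sequence, the fluorescence ratio is the mean of per-cluster values, each being summed target-cycle Cy3 intensity over summed buffer-cycle Cy3 intensity. Clusters outside 100-1000 RFU were excluded. On a modified Illumina MiSeq flow-cell, the Cy3-labelled switching-strand clusters were annealed to 100 nM quencher-labelled ATP aptamer, imaged in selection buffer and then after 15 min with 500 uM ATP at 22 °C. Five such cycles were run, with NaOH stripping and re-annealing between them.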
For the sequence GCTATCTTTT, the switch fluorescence ratio stood at 1.02 ± 0.04.
The result for GGTGTGGGCA reads 0.998 ± 0.041; that for GAGTCTGAAA, 1.141 ± 0.006.
Turning to TGTTGTAGGG, the switch fluorescence ratio was determined as 1.02 ± 0.02.
With TAGAAGTATT, the switch fluorescence ratio worked out at 1.01 ± 0.027.
On to AACGGGGACT, for which the switch fluorescence ratio amounted to 1.05 ± 0.063.
In the case of TACGCACATA, the switch fluorescence ratio came out at 1.48 ± 0.15.
In the case of GTGGGGTAAA it was 1.01 ± 0.055; in that of GAGGGCTTAG, 0.992 ± 0.016; in that of GCTTACCCCC, 2.09 ± 0.13.
As to GAGTGGTGTT, the switch fluorescence ratio came out at 0.983 ± 0.049.
In the case of GGGGAATACG, the switch fluorescence ratio amounted to 1.11 ± 0.048.
On to TTCAATGTCA, for which the switch fluorescence ratio was 0.99 ± 0.043.
In the case of GAGAAGTGTG it was 0.993 ± 0.038; in that of TAAAAAAGTG, 1.02 ± 0.02; in that of TTGTGAAGGT, 1.05 ± 0.044.
Regarding TTTTACTTGC, the switch fluorescence ratio was found to be 1.0115 ± 0.00074.
In the case of GGTAGGATAG it was 0.9728 ± 0.0016; in that of ACACTATCAC, 1.21 ± 0.049; in that of TTTTGGGTCG, 1.03 ± 0.025.
The result for TCCATACCAC reads 1.03 ± 0.032.
In the case of GGGGTTCGAA it was 0.963 ± 0.016; in that of GGGGCAGCGT, 0.999 ± 0.043.
Turning to CCAAATGCGA, the switch fluorescence ratio is 1.97 ± 0.068.
In the case of GGGTAAATAT, the switch fluorescence ratio came to 0.98 ± 0.014.
The result for AAAATAGGCT reads 0.993 ± 0.029; that for AACAGGGAGG, 0.993 ± 0.032; that for ATCGGTTTGG, 0.996 ± 0.0095.
With AAGAATGTG, the switch fluorescence ratio came to 0.9474 ± 0.0022.
In the case of TTACCATGGA it was 0.995 ± 0.0021; in that of GACTAATTTT, 0.9844 ± 0.0081.
In the case of TCGGGGGATG, the switch fluorescence ratio came out at 0.987 ± 0.019.
Take TTTTACCCAA: the switch fluorescence ratio was 1.04 ± 0.024.
In the case of ACAATTGTCG it was 1.028 ± 0.01; in that of GAGTGTGGGG, 0.96 ± 0.03; in that of GACGGGGTGC, 1.3 ± 0.24.
In the case of AAGAGTGGGG it was 1.02 ± 0.049; in that of GTAGGGGTAC, 1.47 ± 0.72.
As for ATGTTTATTG, the switch fluorescence ratio worked out at 0.998 ± 0.018.
Turning to AGAAGATTGG, the switch fluorescence ratio was 0.9723 ± 0.0053.
The result for TTCTGTTGGG reads 0.984 ± 0.013.
The result for ATATCAGCGC reads 1.03 ± 0.018.
In the case of TATATTTTTA, the switch fluorescence ratio is 0.9819 ± 0.0079.
In the case of GGGAATGCGG it was 0.99 ± 0.03; in that of TGCTTCTATA, 1.01 ± 0.051; in that of AAGAGCGGAC, 1.11 ± 0.047.
In the case of AAAGGGGGGG it was 1.01 ± 0.037; in that of GAGATTAAGA, 0.973 ± 0.1; in that of GTGTTTTAGC, 1.009 ± 0.0098.
The result for GCAACTTCGG reads 0.992 ± 0.016; that for CGTTTTTAGT, 1.002 ± 0.0072; that for ATTCGGGTTG, 0.985 ± 0.029.
On to TAAAAAGGGT, for which the switch fluorescence ratio turned out to be 1 ± 0.048.
In the case of ACTGTTATGA it was 1.08 ± 0.058; in that of ATACTCGGTA, 0.997 ± 0.023.
With GACCTCATTT, the switch fluorescence ratio worked out at 1.04 ± 0.032.
The result for ACGTTAATGA reads 1.121 ± 0.002.
In the case of ATTGTTTGGC it was 1 ± 0.027; in that of CTGTAATCGT, 0.9595 ± 0.0086; in that of CAAGTTCTGC, 0.97 ± 0.053.
The result for TGGACGAGGG reads 0.992 ± 0.041.
Take GTTGGGTTGC: the switch fluorescence ratio stood at 0.999 ± 0.018.
The result for GGGATCAGCG reads 0.988 ± 0.041; that for AGGGCCTCCG, 1.295 ± 0.0091; that for AAAGGTTTGC, 1 ± 0.039.
Consider CCTTATAAA, for which the switch fluorescence ratio amounted to 1 ± 0.018.
Take TAGCGATTAG: the switch fluorescence ratio turned out to be 1.01 ± 0.036.
For ACGAGGGGAG, the switch fluorescence ratio was 1.02 ± 0.016.
The result for CTAAATGAGC reads 0.979 ± 0.02; that for TGGGAGCAGC, 1.02 ± 0.038.
The result for GGTTCATACG reads 1.008 ± 0.0041; that for AGTCGCACGA, 0.986 ± 0.016; that for AAGTGTAAAA, 1 ± 0.038.
For ATTGGTACTT, the switch fluorescence ratio was found to be 0.986 ± 0.058.
The result for CTTTGTTTGA reads 0.976 ± 0.0076; that for GAAGGGTGAA, 0.9966 ± 0.0077; that for GTTGGGAGGT, 0.982 ± 0.015.
In the case of GGTCATGGTG it was 1.08 ± 0.024; in that of TTTCGGTCGC, 1.003 ± 0.008.
In the case of GAAGTTATTT it was 0.981 ± 0.021; in that of ACTGCTAATT, 1.08 ± 0.039; in that of GATGTAAGTG, 0.972 ± 0.02.
As to CTAAACCTGG, the switch fluorescence ratio was 1.13 ± 0.034.
As for AACGGCTA, the switch fluorescence ratio is 1.047 ± 0.0045.
As for GGGTATGCCC, the switch fluorescence ratio was found to be 0.9949 ± 0.0027.
For the sequence TGCATCAGCT, the switch fluorescence ratio stood at 1.03 ± 0.046.
The result for GGGGGGTGAC reads 1 ± 0.035; that for GGAACGGGGC, 0.961 ± 0.06.
In the case of GGAAAATACA it was 0.985 ± 0.025.
The result for AACGATTTAT reads 0.9936 ± 0.0068.
For the sequence GAGCTTGGCA, the switch fluorescence ratio stood at 0.9859 ± 0.0058.
TTAAGTAGTT: the switch fluorescence ratio was determined as 1.02 ± 0.0099.
The result for TCATGTCGGG reads 1.005 ± 0.01; that for AAAGGGCTGG, 0.984 ± 0.019.
Take TTAAGGAGGT: the switch fluorescence ratio was 1.03 ± 0.099.
In the case of GGGGCGAGG it was 0.994 ± 0.053.
In the case of TTATGTCAGC it was 1.01 ± 0.023; in that of GGGCTTGTGC, 0.987 ± 0.071.
The result for AATTGGGGCG reads 0.969 ± 0.025.
For the sequence AGGGCGACCG, the switch fluorescence ratio turned out to be 1.07 ± 0.069.
In the case of CCGTCGGCGC it was 1.08 ± 0.019; in that of GGTTTCTTGC, 1.02 ± 0.011; in that of GGTTCAAAGT, 0.9703 ± 0.0047.
As for CAGTGTATTT, the switch fluorescence ratio was 1.01 ± 0.038.
The result for CGGCTGGGGG reads 0.976 ± 0.014; that for CGTCTGATTG, 1.01 ± 0.025; that for CTGAAGGATC, 1.05 ± 0.035.
The result for GGGCCCGGCG reads 0.973 ± 0.049.
For AGAGGGGCAG, the switch fluorescence ratio was determined as 0.961 ± 0.016.
In the case of TATTAGGTTT, the switch fluorescence ratio came to 0.991 ± 0.018.
With GGCTATGGTG, the switch fluorescence ratio amounted to 1.004 ± 0.01.
The result for TTTGTAAAAA reads 0.9829 ± 0.0094.
The result for CTTGAGGGGT reads 0.971 ± 0.0099; that for TAAGAAAGGT, 1 ± 0.0053.
On to TTTTTCGGAT, for which the switch fluorescence ratio is 1.05 ± 0.14.
Regarding TTGGAAAAGG, the switch fluorescence ratio was 1.02 ± 0.029.
In the case of TAAGGGGAAC it was 1.01 ± 0.03; in that of TGGGATTCCC, 1.01 ± 0.017; in that of GGAAGGAGTG, 0.987 ± 0.036.
In the case of TTGATTACTT it was 1 ± 0.04.
